The text below walks through data of publication PMC3950950, “Fluorescent sensors for activity and regulation of the nitrate transceptor CHL1/NRT1.1 and oligopeptide transporters” (eLife, 2014).

Substrate in this series: O=[N+]([O-])O
Description: fluorescence response (donor quenching) of sensor in yeast, plate reader. The class given is cell-based, Arabidopsis thaliana. The settings on record: 50 mM MES pH 5.5, monophasic low-affinity response, excitation 428 nm.

B1: NiTrac1 (CHL1/NRT1.1/NPF6.3 fusion) (Arabidopsis thaliana; T101A) (protein)
chain: MSLPETKSDDILLDAWDFQGRPADRSKTGGWASAAMILCIEAVERLTTLGIGVNLVTYLTGTMHLGNATAANTVTNFLGTSFMLCLLGGFIADTFLGRYLAIAIFAAIQATGVSILTLSTIIPGLRPPRCNPTTSSHCEQASGIQLTVLYLALYLTALGTGGVKASVSGFGSDQFDETEPKERSKMTYFFNRFFFCINVGSLLAVTVLVYVQDDVGRKWGYGICAFAIVLALSVFLAGTNRYRFKKLIGSPMTQVAAVIVAAWRNRKLELPADPSYLYDVDDIIAAEGSMKGKQKLPHTEQFRSLDKAAIRDQEAGVTSNVFNKWTLSTLTDVEEVKQIVRMLPIWATCILFWTVHAQLTTLSVAQSETLDRSIGSFEIPPASMAVFYVGGLLLTTAVYDRVAIRLCKKLFNYPHGLRPLQRIGLGLFFGSMAMAVAALVELKRLRTAHAHGPTVKTLPLGFYLLIPQYLIVGIGEALIYTGQLDFFLRECPKGMKGMSTGLLLSTLALGFFFSSVLVTIVEKFTGKAHPWIADDLNKGRLYNFYWLVAVLVALNFLIFLVFSKWYVYKEKRLAEVGIELDDEPSIPMGH
notes: full-length ORF between N-terminal Aphrodite t9 (yellow FP) and C-terminal mCerulean (pDRFlip30); expressed in yeast BJ5465; intact cells
Regarding B1, the Km – broadly, the substrate concentration at which the rate is half of its maximum – is 3.5 ± 3.7 mM.
